Experimental data: paper PMC3360062

Substrate: C[C@H](N)C(=O)O
Experiment: purified protein
Settings: 0.5 mM ATP, 10 mM MgCl2, 50 mM Tris-HCl pH 7.5, 25°C, 0.25 µM enzyme, 5 min, alanine 0.1-0.5 mM

B1: Sare0718 (Salinispora arenicola) (protein)
chain: QRTSTTTTAETTTSTRATGRTNLPASPYPIHPPEPLATLSPRDRALFVRFGYGPTESVAHTHIHHAFEYWATVTPEAVAVEDGDETITYRELDQRADQLAARLAASGVRPGDRVALFVRRSIPMVVGLLAALKAGAAYVPQHVDTVPPAQLQHVIHTADTRVIMTLAATADRIPVPDGHVVITLDDLGKTEPTDLIAGRFTPATPLPPDSPCYVLFTSGSTGRPNGVVVTHRNICNILLTSPGNLGIQPGWKVGQILNIAFDMASWEILGALSHGATLVIRGSDIVETMSRVDVIIATPTVLSRTDPDRCQRVKVVAVAGEPCPRALADAWSAVCAFYNACGPTETTIVNTMSRHRPTAERLTIGRPTPNNTVYVLDADLRPCPIGTVGEMWAGGDCVSAGYLSNARLTAERYALDPFLGHGRLMFRTRDLGRWTPDGELEHFGRTDDQVKVRGFRVELDSVSAILEAVPGCTRAATIKLDDRSLVSFVAPAEVDPDLARMAVSEALPYYCVPETVHTLPELPTTSRGKIDKLALRRLVTRQDQLVTSQEQGATR
  Km: 116.4 ± 15.9 µM
  kcat: 0.209893 ± 0.00852 s⁻¹
